Assay results reported in US20250333542A1 (Hoffmann-La Roche, published 2025).

Key:
[1] = target: T1, Fc (kih)-IFNGR1 monomer (P1AF7104) (UniProt P15260 18-245); assay: SPR (Biacore 8K, 25 C), biotinylated Fc(kih)-IFNG captured on SA chip, Fc(kih)-IFNGR1 monomer as analyte, 1:1 Langmuir fit
T1 construct: Used as the soluble analyte in SPR; not shown: Fc (kih) part
T1 sequence (P15260 whole entry, species assumed, looked up): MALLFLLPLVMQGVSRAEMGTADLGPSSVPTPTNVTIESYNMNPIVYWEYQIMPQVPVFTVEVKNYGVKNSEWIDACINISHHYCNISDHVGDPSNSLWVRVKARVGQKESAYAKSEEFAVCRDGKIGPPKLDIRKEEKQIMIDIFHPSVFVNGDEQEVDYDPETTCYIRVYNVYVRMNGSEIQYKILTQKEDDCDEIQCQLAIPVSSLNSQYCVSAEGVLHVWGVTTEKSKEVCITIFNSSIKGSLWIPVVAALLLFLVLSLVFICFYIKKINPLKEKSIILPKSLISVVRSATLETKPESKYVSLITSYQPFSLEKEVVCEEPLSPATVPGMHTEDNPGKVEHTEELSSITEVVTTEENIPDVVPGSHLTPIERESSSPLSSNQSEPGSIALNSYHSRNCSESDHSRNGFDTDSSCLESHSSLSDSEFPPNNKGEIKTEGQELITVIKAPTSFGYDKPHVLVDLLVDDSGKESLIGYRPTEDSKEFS
Description: (§1) The binding behaviour of IFNG variants towards IFNGR1 and IFNGR1/2 was assessed by surface plasmon resonance (SPR). SPR experiments were performed on a Biacore 8K device at 25° C. with HBS-EP as running buffer (0.01 M HEPES pH 7.4, 0.15 M NaCl, 3 mM EDTA, 0.005% Surfactant P20, Biacore, Freiburg/Germany). […] IFNG mutation series compounds were immobilised at a concentration of 25 nM, 80 s contact time and 10 μL/min. Immobilisation levels up to 450 resonance units (RU) were used. Subsequently, decreasing concentrations (800-3.13 nM) of Fc (kih)-IFNGR1 monomer or Fc (kih)-IFNGR1/2 heterodimer were injected as a second analyte with a flow rate of 30 μL/min over 120 seconds and dissociation was monitored for 500 s. Bulk refractive index differences were corrected for by subtracting the response obtained in a reference flow cell, where no protein was immobilised. […]
(§2) To further evaluate analogous properties of wild-type IFNG and our engineered compound with C-terminal KRKRP (SEQ ID NO:1), we determined the binding affinities of IFNG variants towards IFNG receptors by SPR. […] As second analytes, either IFNGR1 monomer (P1AF7104) or IFNGR1/2 heterodimer (P1AF8126) were passed through the flow cell at different concentrations and dissociation constants (KD) were calculated based on observed association and dissociation behaviour.

[2] = target: T2, Fc (kih)-IFNGR1/2 heterodimer (P1AF8126) (UniProt P15260 18-245; P38484 28-247, limits assumed); assay: SPR (Biacore 8K, 25 C), biotinylated Fc(kih)-IFNG captured on SA chip, Fc(kih)-IFNGR1/2 heterodimer as analyte, 1:1 Langmuir fit; IFNG KRKRP variant, IFNGR1/2 heterodimer as analyte
T2 construct: Used as the soluble analyte in SPR; also called Fc (kih)-IFNGR1/R2 heterodimer; IFNGR1/R2; not shown: Fc (kih) chain
T2 sequence (looked up) 1: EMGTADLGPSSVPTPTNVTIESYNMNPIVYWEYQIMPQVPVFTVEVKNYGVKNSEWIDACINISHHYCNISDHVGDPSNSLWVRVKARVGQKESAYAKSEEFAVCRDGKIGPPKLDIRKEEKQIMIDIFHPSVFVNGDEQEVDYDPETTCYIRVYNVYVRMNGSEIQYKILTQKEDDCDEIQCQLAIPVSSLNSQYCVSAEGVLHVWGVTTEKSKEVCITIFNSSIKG
T2 sequence (looked up) 2: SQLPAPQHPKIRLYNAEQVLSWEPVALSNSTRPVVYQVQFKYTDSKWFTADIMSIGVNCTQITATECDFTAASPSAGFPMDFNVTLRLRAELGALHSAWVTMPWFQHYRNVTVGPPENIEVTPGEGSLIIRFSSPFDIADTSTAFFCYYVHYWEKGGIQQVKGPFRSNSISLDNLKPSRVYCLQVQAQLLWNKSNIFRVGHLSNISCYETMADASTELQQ
Description: as §1, §2

Kd [1]: 154 nM
Kd [2]: 54.4 nM
B1: Fc (kih)-IFNG KRKRP (P1AG1550) (Fc fusion)
chain: QDPYVKEAENLKKYFNAGHSDVADNGTLFLGILKNWKEESDRKIMQSQIVSFYFKLFKNFKDDQSIQKSVETIKEDMNVKFFNSNKKKRDDFEKLTNYSVTDLNVQRKAIHELIQVMAELSPAAKTGKRKRP
modifications: biotinylated (site not stated)
notes: Produced as a C-terminal Fc (kih)-fusion protein; not shown: Fc (kih) chain (knob: S354C, T366W; hole: Y349C, T366S, L368A, Y410V as printed) and any linker
